Here are results for 14 molecules from article PMC10786891, “Massively parallel profiling of RNA-targeting CRISPR-Cas13d”.

For orientation: Kd means a measure of binding affinity in units of concentration. Low readings indicate higher affinity, high ones lower affinity.

B1: target 3 C1U,A12C (mixed)
RNA 1: CACCCGUGCAAAAUUGCAGGGGUCUAAAACGACCUGAAUAUUUCAGAUCAAA
RNA 2: GGGAAUGGAUCCACAUCUACGAAUUCGUUUUUGAUCUGACAUAUUCAGGUUUGCAGAUCGGAAGAGCACACGU
B2: target 3 insU 3' of 16,insU 3' of 1 (mixed)
RNA 1: B1 RNA 1
RNA 2: GGGAAUGGAUCCACAUCUACGAAUUCGUUUUUGAUCUUGAAAUAUUCAGGUCUUGCAGAUCGGAAGAGCACACGU
B3: target 3 insC 3' of 22,insU 3' of 6 (mixed)
RNA 1: B1 RNA 1
RNA 2: GGGAAUGGAUCCACAUCUACGAAUUCGUUUCUUGAUCUGAAAUAUUCUAGGUCUGCAGAUCGGAAGAGCACACGU
B4: target 3 C1G,A12G (mixed)
RNA 1: B1 RNA 1
RNA 2: B1 RNA 2 with C40G, U51G
B5: target 3 insG 3' of 9,insC 3' of 8 (mixed)
RNA 1: B1 RNA 1
RNA 2: GGGAAUGGAUCCACAUCUACGAAUUCGUUUUUGAUCUGAAAUAGUCUCAGGUCUGCAGAUCGGAAGAGCACACGU
B6: target 3 del4,del5 (mixed)
RNA 1: B1 RNA 1
RNA 2: GGGAAUGGAUCCACAUCUACGAAUUCGUUUUUGAUCUGAAAUAUUCGUCUGCAGAUCGGAAGAGCACACGU
B7: target 3 A5U,C6U (mixed)
RNA 1: B1 RNA 1
RNA 2: B1 RNA 2 with C40A, C46U, A47U, U51C
B8: target 3 insC 3' of 22,insA 3' of 21 (mixed)
RNA 1: B1 RNA 1
RNA 2: GGGAAUGGAUCCACAUCUACGAAUUCGUUUCUAUGAUCUGAAAUAUUCAGGUCUGCAGAUCGGAAGAGCACACGU
B9: target 3 insA 3' of 2 (mixed)
RNA 1: B1 RNA 1
RNA 2: GGGAAUGGAUCCACAUCUACGAAUUCGUUUUUGAUCUGAAAUAUUCAGGUACUGCAGAUCGGAAGAGCACACGU
B10: target 3 del6,del9 (mixed)
RNA 1: B1 RNA 1
RNA 2: B6 RNA 2 with A43U, U45A, C46G
B11: target 3 G4A,A11G (mixed)
RNA 1: B1 RNA 1
RNA 2: B1 RNA 2 with C40A, A41G, G48A, U51C
B12: target 3 U2A,A18G (mixed)
RNA 1: B1 RNA 1
RNA 2: B1 RNA 2 with A34G, C40A, U50A, U51C
B13: target 3 U8C,A9G (mixed)
RNA 1: B1 RNA 1
RNA 2: B1 RNA 2 with C40A, A43G, U44C, U51C
B14: target 1 U10G,U11G (mixed)
RNA 1: CACCCGUGCAAAAAUGCAGGGGUCUAAAACUGAGCGGAUAACCUCUCUAUGG
RNA 2: GGGAAUGGAUCCACAUCUACGAAUUCGUACCAUAGAGAGGGGAUCCGCUCACCGAGAUCGGAAGAGCACACGU

Numbering of substitutions follows the chain as printed. Numbers in names are those of the source.

The data set deals with T1, EsCas13d, nuclease-dead (Eubacterium siraeum, UniProt B0MS50, R295A;H300A;R849A;H854A).
T1 sequence: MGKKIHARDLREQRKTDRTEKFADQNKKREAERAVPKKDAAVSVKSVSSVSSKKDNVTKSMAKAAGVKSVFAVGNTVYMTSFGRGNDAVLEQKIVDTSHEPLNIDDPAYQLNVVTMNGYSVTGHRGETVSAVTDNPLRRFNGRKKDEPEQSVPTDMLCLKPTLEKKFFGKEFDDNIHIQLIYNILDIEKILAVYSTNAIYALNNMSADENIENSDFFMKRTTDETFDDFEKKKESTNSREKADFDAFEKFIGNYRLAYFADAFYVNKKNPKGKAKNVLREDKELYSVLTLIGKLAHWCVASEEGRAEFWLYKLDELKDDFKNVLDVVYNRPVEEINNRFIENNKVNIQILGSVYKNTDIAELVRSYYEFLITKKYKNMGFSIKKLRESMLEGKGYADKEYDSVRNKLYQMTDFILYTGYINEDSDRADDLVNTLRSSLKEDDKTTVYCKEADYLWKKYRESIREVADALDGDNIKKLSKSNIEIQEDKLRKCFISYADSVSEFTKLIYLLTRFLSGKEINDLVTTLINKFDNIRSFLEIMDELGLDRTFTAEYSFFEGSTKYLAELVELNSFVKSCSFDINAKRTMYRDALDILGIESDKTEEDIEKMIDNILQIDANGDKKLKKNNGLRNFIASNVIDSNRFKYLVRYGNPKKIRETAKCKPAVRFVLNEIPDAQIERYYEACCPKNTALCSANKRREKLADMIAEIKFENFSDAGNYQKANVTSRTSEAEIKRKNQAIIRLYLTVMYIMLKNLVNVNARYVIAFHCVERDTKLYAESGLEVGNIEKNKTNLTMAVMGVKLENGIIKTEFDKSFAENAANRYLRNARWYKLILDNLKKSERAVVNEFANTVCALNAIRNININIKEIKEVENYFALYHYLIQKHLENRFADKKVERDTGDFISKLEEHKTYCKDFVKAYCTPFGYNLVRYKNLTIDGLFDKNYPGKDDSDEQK
The data set can be described thus: crRNA (strand 1, pre-loaded); Mg2+; 40 mM Tris-HCl pH 7.5, 150 mM NaCl, 6 mM MgCl2, 1 mM DTT, 0.1% Tween-20, 0.2 mg/ml BSA; 25 C; 10 min per concentration, then washed. The settings on record: tags: His6-TwinStrep-SUMO cleaved; N-terminal SNAP kept (SNAP-Surface 488); label: 3' end held by stalled T7 RNA polymerase.
Regarding B1, the Kd came to 86.5 ± 17 nM.

B2 had a Kd of 39.5 ± 6.5 nM.

Regarding B3, the dissociation constant (Kd) is 29.6 ± 2.7 nM.

B4 displayed a Kd of 50 ± 9 nM.

B5 displayed a dissociation constant (Kd) of 90 ± 16.5 nM.

In the case of B6, the affinity, expressed as Kd, was 24.6 ± 2.15 nM.

For the molecule B7, binding was characterised by a dissociation constant (Kd) of 48 ± 6 nM.

Molecule B8 gave a Kd of 43 ± 5 nM.

Molecule B9 yielded a Kd of 30.2 ± 2.55 nM.

As for B10, the equilibrium dissociation constant (Kd) was 120 ± 24 nM.

B11 displayed a Kd of 36 ± 5 nM.

B12 showed a Kd of 55.5 ± 7.5 nM.

With B13, the equilibrium dissociation constant (Kd) amounted to 77 ± 15.5 nM.

In the case of B14, the equilibrium dissociation constant (Kd) came out at 32.7 ± 2.9 nM.
